Measured values: publication PMC7014002, “Identification and Characterization of a β-N-Acetylhexosaminidase with a Biosynthetic Activity from the Marine Bacterium Paraglaciecola hydrolytica S66^T” (International Journal of Molecular Sciences, 2020)

Experiments:
SpHex = molecular target: T1, SpHex (Streptomyces plicatus, UniProt O85361); experiment: transglycosylation time course, TLC; assay type: biochemical; settings: donor 100 mM; acceptor 200 mM lactose; 50 mM sodium phosphate pH 8.0, 0.5% BSA, 37 °C
T1 construct: gene hex
T1 sequence (O85361 1-506): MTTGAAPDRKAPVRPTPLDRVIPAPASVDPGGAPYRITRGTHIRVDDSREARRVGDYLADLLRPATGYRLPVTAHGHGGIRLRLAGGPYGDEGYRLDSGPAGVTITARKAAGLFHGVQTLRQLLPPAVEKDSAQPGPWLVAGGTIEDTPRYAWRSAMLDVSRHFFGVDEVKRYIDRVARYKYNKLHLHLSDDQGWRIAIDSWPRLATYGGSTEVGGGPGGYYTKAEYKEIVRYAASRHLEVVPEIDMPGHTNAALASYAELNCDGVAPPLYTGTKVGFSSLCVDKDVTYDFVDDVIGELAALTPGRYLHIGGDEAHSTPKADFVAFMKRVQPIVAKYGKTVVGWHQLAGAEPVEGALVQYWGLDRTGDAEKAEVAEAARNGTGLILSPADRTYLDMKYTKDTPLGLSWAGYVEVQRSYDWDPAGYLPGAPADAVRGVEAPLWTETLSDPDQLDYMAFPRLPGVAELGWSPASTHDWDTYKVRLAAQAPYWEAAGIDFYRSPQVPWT

purified protein [1] = substrate: CC(=O)N[C@H]1[C@H](Oc2ccc([N+](=O)[O-])cc2)O[C@H](CO)[C@@H](O)[C@@H]1O; experiment: purified protein; assay type: biochemical, Paraglaciecola hydrolytica; settings: two-fold diluted McIlvaine buffer pH 6.0, 0.05% BSA, 37 °C
purified protein [2] = substrate: CC(=O)N[C@H]1[C@H](Oc2ccc([N+](=O)[O-])cc2)O[C@H](CO)[C@H](O)[C@@H]1O; experiment: purified protein; assay type: biochemical, Paraglaciecola hydrolytica; settings: two-fold diluted McIlvaine buffer pH 6.0, 0.05% BSA, 37 °C

Row | Molecule | transglycosylation time course, TLC (SpHex) | Km (purified protein [1]) | kcat (purified protein [1]) | kcat/Km (purified protein [1]) | Km (purified protein [2]) | kcat (purified protein [2]) | kcat/Km (purified protein [2])
1 | CC1=N[C@H]2[C@@H](O1)O[C@H](CO)[C@@H](O)[C@@H]2O [NAG-oxazoline, 2-methyl-(1,2-dideoxy-α-D-glucopyrano)-oxazoline] | We here also demonstrated transglycosylation by the commercial GH20 N-acetylglucosaminidase from S. plicatus (SpHex) | – | – | – | – | – | –
2 | PhNah20A (Paraglaciecola hydrolytica) (protein) MYKIIIAGLGLLWSITSHGMQPLNLMPYPSEVQQQAGHFTLPSQLKVFTQHVSEARCELIKEQLEQLQQVEVLWVTAKDQANLLVEVEGVTQVMEVGGKSGELIPTLHDNEQYHLSVSPRLITLKAQTERGMLHGVQTLLQLVNRTQRSIPAVDIDDKPRFAWRGLLIDSVRHFMPVDTIKRQLRGMASAKLNVLHWHLTDDQGWRIASKAYPKLQLLASDGLFYTQQQIREVVQYAALLGIRVVPEFDVPGHASAIAVAYPELITQPGPYTMQRHWGVFEPLLDPSNPQVYQFIETIISELAELFPDVYVHIGGDEIEPTQWQQSQAVQHYMQQHQLADEHQLHAYFNQQVQQILSKYGKQMMGWDEVFATDLPKDIVVQSWRGLDSLQHIASSDYQVLLSTGYYVDQPQEAAYHYRNDPFTSFKQPSFKTQDIKHWQHWQFTMPRLKGSAVSGEFVLLSSEAGKQVLLRFNNQQARLINELEPRANLQRFTVDSWMGPSQFELDLSKDVIQQGRILIGNTPYSVSGNRLAQSTGSKALPAMLQDFVAASKVPTDLPKLHKNILGGEAAIWSEIVRADNLDLRLWPRLYAIAERLWSPATLTDEDAMYRRLTVMQTYASEVIGLEFTQQQRAGFKQLTSQDADIEPLIILAEAVEQAQYYTRHHSKFQHDNYHQLVELNQYVDYLSAQSLGLVELKRHIELFQQGDQQAKKFIEQLLQKWQKNLPKLKLLIANYPKLHSLAPLVTTLSQVVDIGQKLVAQCAKGEPLKPEHQRDVQQQLWQAAQLQQEMVVSSALAIEALAFKCRA | – | 430 ± 70 µM | 147 s⁻¹ | 341000 M⁻¹ s⁻¹ | 560 ± 110 µM | 193 s⁻¹ | 344000 M⁻¹ s⁻¹
